Experimental data as given in publication PMC5650612, “Enhancing Tropane Alkaloid Production Based on the Functional Identification of Tropine-Forming Reductase in Scopolia lurida, a Tibetan Medicinal Plant” (Frontiers in Plant Science, 2017).

Tested on: CN1[C@@H]2CC[C@H]1CC(=O)C2
Assay: purified protein
Settings: pH 6.4

## SlTRI (Anisodus luridus)
  Km: 40.90 ± 7.059 mM
  Vmax: 1.95 µmol/min/mg
  kcat/Km: 24 M⁻¹ s⁻¹
